Test system: Saccharomyces cerevisiae
Experiment: transcriptional activation domain activity (GFP:mCherry ratio, weighted mean of sorted bins, harmonized to initial dataset scale) (arbitrary fluorescence ratio units); higher = stronger transcriptional activation
Conditions: beta-estradiol 1 µM; induction time 4 h
Method in brief: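 For this assay, yeast diploids with a GFP reporter carried barcoded protein tiles at URA3, each fused to an estradiol-inducible synthetic transcription factor. Induction was a 1:5 dilution into SC with 1 uM beta-estradiol for 4 hours at 30 °C, followed by sorting into 8 bins by GFP:mCherry ratio and barcode sequencing. Tiles under 50 reads were dropped, and activation activity was calculated as the read-weighted mean of bin median fluorescence, averaged across barcodes and linearly mapped onto the initial dataset scale.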

| Sequence | transcriptional activation domain activity |
| --- | --- |
| FAALRRGLLLIMLFALWDVRLLSELSFTNFVFPPAMFRVIAAQSPSLRAVKVS | 45300 |
| FAELRRARAGCFFFFFFLFFPFFSFFYFFLLFLFLFLPPFPFLSFPFFSLCVL | 56100 |
| FAEQGWQVVYYSWQWSLGVYIHYYLPSSVWAGYPHISLPVVIKVYYLMQISLY | 37900 |
| FAFLAPFFCFLFYMSMGFFRLFLFCFLGFGTFVVFNLILVPAFSLYLNHVYLL | 68100 |
| FAGAFKHFQRLGPVSQWDLLAKLPLIVFWILFTCCSLHFYLLFLFLFFIRWVS | 55200 |
| FAGIYSLVHFRKVWSSDHFILRKFMFMIEDLYQLYNLFFSWVAMGNFYLIFYI | 67800 |
| FAGLSYFVYDLHTMLSSIVIICVIVADFLYFGSILLPALWLECPYRVPLLFRP | 71900 |
| FAHIQPGLNVPIRAIMLCYLFNVAFGLLYLGPSVAFGAYISSCTILLNVSYAF | 57100 |
| FALFPEDPIILTIFGFFFSIPCFYYIVAKPQYISASRFVLLTYNLTCLYCYNL | 32600 |
| FALMLREPAIQDVMSLLITTMSKFMDWFDFLDLIVTYPEFPDPKWLTTLFLIL | 23900 |
| FALTFFWSLIGYWVPFFEAIHLFWWIGYRANYVPLMSADVAWRWFFKWDFPFF | 62000 |
| FANWLGLQKNGMGMRLFPFFIFSLFFLSFFSLFWGFSFFFSFSFFFGFSFFWF | 23100 |
| FAQRKSPFTQLLAFFLTRGCVIAGYQIILLIVPLLAGVSYTWVPLLFCLSRVY | 62100 |
| FARVLLNGWFRTFHKVVSTAECVAWLVLFLPYAIGVLLVVRCVLGFHDIPKPK | 45500 |
| FATFYVARDVFHVTPNELHSIMYLHISSAPHFVIFSTRVPGFWWENMPHWLFF | 51500 |
| FCFFLFLLSFSSCYFFFLLLFLPLTFSSLLFLPIYFFSSSSSSFFLPFLFVSL | 43000 |
| FCFYPFQKQWVMFSLTKDSLQLAHKFNFTRVPLPQRLRAVYLYARFAWRIFLL | 33000 |
| FCHIALFPSIGLKDTNYIPRAMDGVRFAHLESLHLQFNMYWLGPMYAWALHIL | 52500 |
| FCMLNHWYARSWGTYLWLGLLLTDLDVTYKYKKWLYAHPGTYYPLLTFAWLCV | 63000 |
| FCQISGFSLAVGIESSDIAVLLIALHSVMYIFSPLSGLYPYRQLAYLVYYLFP | 49400 |
| FCRALIHSQGEGPKSIYESSVISLTEAARAIINISRRSFTLHQTLTCRMWYFL | 49900 |

| Sequence | transcriptional activation domain activity |
| --- | --- |
| FCRCLTGTGKSRMGVPVVSRLLCHFQGLLLRVMAHLFEDRPGSVRWMTIELLK | 28500 |
| FCVAAMIGEYGTTYYPTVTYWGELEVLGKIFWTLPLESFANSISGIIVDCYLI | 63500 |
| FCYVVVLGRVLIRFGGYQVLTLWRSCMRRLPKLGDSIWSRVFLRCVSCMSLFL | 62000 |
| FDAALQHCRHGIMILNNSSRPEWMCQYLVPIFRRLSITPFFFGGVRPTRLPQL | 68800 |
| FDETIIQLRKTVLSCSTCCSIALKWFAEHEYALVGLLLRCLHMKVRSQIRAFL | 44000 |
| FDHPLIPNRRKTYMRFEGCNPDMGCTIILRGADIITLRRLKKVMRFVTFMVRN | 70100 |
| FDIITASLENSYQTTLTEKGSQVMEKNMDQLDSVHNLNDDDLQQLLEDLGNID | 111000 |
| FDLDDQYLANVVAEDRDASVLVQMSIIVQEGEHSHKSEQEPHISLLVLRRKRL | 40200 |
| FDNSGFQRLESLCACLAAIKSWMDIFLKFPPLEYAHLSFTFWAQLMKCIVVLY | 61900 |
| FDQDIPQDSSLNTSYISNLPYFGVTPSENFDETWFFDQAIGLGWLDSAQFTLG | 142000 |
| FDQYLFESISGLILRVQFIGGALPDSISIFEPTLFPPFTEILQGDIDQYIPYV | 51300 |
| FDRLIPEWAHAWKPVEGIWMLWWIKHQIFFALGVLQLLNQYWFFLILRILVRT | 56300 |
| FDTLLSFLLFSLSLIFFLSFLPLFCQRYFFSSFLNLVFLAFWLCCYCCCCSRG | 31700 |
| FDTRGAIYCSRPRMVMMCELMGWDAAFVLMPYTPRWRRHRRLFHQHFNEAVAN | 80200 |
| FDYDMFFRDSSKEGNNLFGEFLEDDDDDKKAANMSDDESSLIKNQLINEEPEL | 41400 |
| FDYMICPVHDLGIPAPLSVFLSTVLNRAVTTIPYAPYQTHLFFLSCFVSLVAP | 40500 |
| FEAKHADLIGSQKALYFQSTENIKNLLSMFTSYFSPIVDLLGHLHRVLTQVYH | 46600 |
| FEFQHTRLYMAFRELEGKLLPCLIEANGLDLVIATLLSVVEKVTEVSNIRLTS | 35600 |
| FEHKELKLCPYFNFTFCVYFRLSNPFAKQYHITPTCFCGQNVTINRTYREGKN | 62800 |
| FELHIPYHFVVVNTGKKLFQIWGLGKIDFARDFPFLQGARGSLTRTIIVILRN | 52300 |
| FFAFTFILMMACLVSGIGWCLLYFTCMYLLLIYYILSLFFYSPLASCNSFFFF | 27200 |

| Sequence | transcriptional activation domain activity |
| --- | --- |
| FFCCSSLKRDMRFRSYLWAVWVGVVTGVKTSINLVSYRGLPPNNIIIKNLFFA | 67700 |
| FFCFVFLAHYTWLIKHGFQTHLLELGSFFSDLSLIICFFLLIMHLFCVTPFFR | 68400 |
| FFCSLFVSPVTLFFIFYSYCKRSFAISLLLMITIYWSFLLGLTASILVYRIWL | 57500 |
| FFDDIPDTLESIRKHIDLFGNDFYLAHIYRTLRWWTKPTHVAVLGDLLGSQWI | 70300 |
| FFELLGLFVFFVLFLVGAAIASTFWGDLFWCHSFWQCRVLTVLVAFAWMCWVL | 46900 |
| FFEVGGVPRFQETVIAGGDNSVGRALSSPTVIYSGKHDGIALTIIRLLRPIWL | 53400 |
| FFFFFFFFFFFFFLFLLLSLFFPYLICHRLHLKTQLPHICFIFRLLAASCLST | 46400 |
| FFFFHFFFFWSSLRHIFQVLILGALGFLFFHFSFFIFHFSFFIFHFHFLFFFS | 50400 |
| FFFFLLFCFSFLYRLLSLYLFLFPFDFFFFSPWFCSNSRFYLRFVSFFPFFFF | 50200 |
| FFFFLLFFPLPFFPSSFPFFFLIHLLISSSLVFPFSSSSSSLTQVFWCLCFFF | 57400 |
| FFFFLLLLLLFFFLLRFLLLVYYYPNHPTHTYQPISFQFQPTHQIHHNALQHH | 32200 |
| FFFFPFLSLLFFFFPFLLSLLSSSLLLAAFSCFCFLPSLTPLPLSSSSSSPLF | 34900 |
| FFFFVIFSLFHLPFACIFRFFPNDLFACYLYSPFFFPIDFCPFALFPPFFLSF | 59500 |
| FFFSFFFFLFLFLFHLRFFPLTFVPFFIPCLLLLSSSLLLCCVVWYLFMRLFS | 46700 |
| FFFSGTALRGIYVGCLVFLVLLWFLHMFFILFTFPFFFVLVWVLLFFRELHFA | 50600 |
| FFFSSIFFIVFGGPGQLFFFFSILLFLYPISTFMRCIIHRVFLLFFAFFFFLF | 29400 |
| FFFVCYILQTLGMIAYMIMIVYDYYQNYLWFRGVAVVQSSTFIGQWYVFFIWF | 57700 |
| FFFVNGMWYNMAYIFGSWKLGWWELGAKIFVFQEVYETLLYLLTPFILPISFY | 48600 |
| FFGSLMGGALARPQDHWPELFAHPFWTTHPYFLPSASSDCVLLLIIFISLFFL | 77800 |
| FFGVCLGFYGFSFRSNFEPGAIIHDYILFMTPSFASLCARFHIQWLLFILFIH | 46800 |
| FFHVTIRCASQGCGIAFGILGFQNTNVFLAYLILGAEGYFTLVLCVFRFLISW | 73400 |

| Sequence | transcriptional activation domain activity |
| --- | --- |
| FFHVTIRVASQACGIGFGILGFRNTNLFLAFLILGAEGYFSLVLCAFRFLISW | 48000 |
| FFHVTIRVASQGCGIGFAILGFGNLGLFLAFLILGAEGYFSLVLCTFRFVISW | 78100 |
| FFHVTIRVASQSCGIAFGILGFSNFPVFLAYLILGAEGYFSLVLCAFRFLISW | 75000 |
| FFHVTIRVASQSCGIAFGILGFSNFRVFLAYLILGAEGYFTLVLCAFRFLISW | 61100 |
| FFHVTVRVASQGCGLAFGIHGFENTDVFLAYLILGAEGYFTLVLCTFRFLVSW | 66200 |
| FFLALSFKDPFRWLYQFNMDPSLCTEKYLGSNLCVNQNLITLGFMLLLDLVLF | 67300 |
| FFLALSFRDALAATSMMNLNNCMADPLLGKWVCQLLPSLTSILMFTVELVLFF | 63800 |
| FFLCTFTFFSFCLHLFLFLCVYRLYPTFCSVYPFFPFPILLLFIWLFMWFFIS | 71800 |
| FFLFLFFPFSFSFLFFSFFHFLPMLAHCYNGVTISVSLWFPLILASLFRPFLL | 64300 |
| FFLKVYLLNPLHMTRFADLLYQGAILNHVFQPYESHLQYLLQWMCDYNLYGCA | 70700 |
| FFLKVYLLNPLHMTRFADLLYQGAILNRVFQPYESHLQYLLQWMCDYNLYGCA | 72900 |
| FFLKVYLLNPMHMTRFADLLYQGAILNRVFQPYESHLQYLLQWMCDYNLYGCA | 46700 |
| FFLLFHIFHCLWGPRATILLFFSILLFFYPISTFMRCIIHRVFLLFFAFFFFL | 22200 |
| FFLLIALLPAWVVGFCIVFSIAMSCAAYDTLQVSLVATVSNDLFRNKISIWWV | 42000 |
| FFLLRNGFIFEDMARYRFYTCSQLWLWLIFLAVRSEIGLQRVYVFFVFMLFQV | 49800 |
| FFLRIAVEVLHIRIIWAIILVNVLFGFSYFMCAVLQCVPIPYIWKKYAANPPP | 43200 |
| FFLVLIYCPFPSFGPDLSLPFPSPFLSLHLLITILLSPLSPFYLFLFYFTSPS | 84300 |
| FFNILILQWRRIRCCKVVSTSLCLENTLGVAQLFVQFVLFTLIFILYMIYFPP | 48300 |
| FFPLGFLMRFLLFDLSLSCFLSFPLFLFSLPTTFLLYYYFPPHTIIMSCGSPI | 43500 |
| FFPSFSFSFSSFSFLLFISSSYSFFLFFPSSYSFFLFFFFYLIPYLLDFFPFL | 50500 |
